Patent publication US20180079819A1 (IMMUNOGEN, published 2018)
Substitutions are numbered along the chain they refer to. Where two headings read alike, the source gives them in different places.

Tests used:
[1] = molecular target: T1, human CD123 (IL-3Rα, interleukin-3 receptor alpha chain) (human, UniProt P26951 19-378); experiment: flow cytometry on HNT-34 cells, PE-conjugated goat anti-human secondary
T1 construct: CD123 on human cell lines (TF-1, HNT-34, MOLM-13 and other AML, B-ALL, CML and NHL lines) or on 300-19 cells stably expressing human CD123; also called CD123 antigen; human CD123 antigen

[2] = molecular target: T1, human CD123 (IL-3Rα, interleukin-3 …); experiment: cell-based or functional assay
[3] = molecular target: T1, human CD123 (IL-3Rα, interleukin-3 …); experiment: cell-based or functional assay; remark: listed apart in the source
[4] = molecular target: T1, human CD123 (IL-3Rα, interleukin-3 …); experiment: cell-based or functional assay; remark: listed apart in the source
[5] = molecular target: T1, human CD123 (IL-3Rα, interleukin-3 …); experiment: flow cytometry on TF-1 cells; EC50 of the binding curve taken as apparent Kd; TF-1 cells
Procedure: Binding affinity was tested by flow cytometry using purified antibodies. […] TF-1 cells (5×10⁴ cells per sample) were incubated with varying concentrations of murine antibodies in 200 μL FACS buffer (DMEM medium supplemented with 2% normal goat serum). The cells were then pelleted, washed twice, and incubated for 1 hr with 100 μL of phycoerythrin (PE)-conjugated goat anti-mouse IgG-antibody (Jackson Laboratory). The cells were pelleted again, washed with FACS buffer and resuspended in 200 μL of PBS containing 1% formaldehyde. Samples were acquired using a FACSCalibur flow cytometer with the HTS multiwell sampler, or a FACS array flow cytometer, and analyzed using CellQuest Pro (all from BD Biosciences, San Diego, US). For each sample the geomean fluorescence intensity for FL2 was calculated and plotted against the antibody concentration in a semi-log plot. A dose-response curve was generated by non-linear regression and the EC₅₀ value of each curve, which corresponds to the apparent dissociation constant (Kd) of each antibody, was calculated using GraphPad Prism v4 (GraphPad software, San Diego, Calif.).

[6] = molecular target: T1, human CD123 (IL-3Rα, interleukin-3 …); experiment: flow cytometry on HNT-34 cells; EC50 of the binding curve taken as apparent Kd

T1 sequence (P26951 19-378): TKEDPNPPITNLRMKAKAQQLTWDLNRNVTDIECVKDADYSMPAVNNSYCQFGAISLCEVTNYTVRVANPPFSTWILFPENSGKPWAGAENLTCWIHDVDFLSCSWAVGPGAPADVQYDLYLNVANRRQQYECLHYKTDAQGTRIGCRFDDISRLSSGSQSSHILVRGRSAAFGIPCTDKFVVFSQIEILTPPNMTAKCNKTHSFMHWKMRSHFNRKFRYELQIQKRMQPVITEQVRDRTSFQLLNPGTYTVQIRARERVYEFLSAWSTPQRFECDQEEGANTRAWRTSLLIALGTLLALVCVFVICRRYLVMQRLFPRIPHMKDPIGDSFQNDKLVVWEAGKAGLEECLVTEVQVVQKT

B1: huCD123-6Gv4.7-CysMab-D4 (antibody)
heavy: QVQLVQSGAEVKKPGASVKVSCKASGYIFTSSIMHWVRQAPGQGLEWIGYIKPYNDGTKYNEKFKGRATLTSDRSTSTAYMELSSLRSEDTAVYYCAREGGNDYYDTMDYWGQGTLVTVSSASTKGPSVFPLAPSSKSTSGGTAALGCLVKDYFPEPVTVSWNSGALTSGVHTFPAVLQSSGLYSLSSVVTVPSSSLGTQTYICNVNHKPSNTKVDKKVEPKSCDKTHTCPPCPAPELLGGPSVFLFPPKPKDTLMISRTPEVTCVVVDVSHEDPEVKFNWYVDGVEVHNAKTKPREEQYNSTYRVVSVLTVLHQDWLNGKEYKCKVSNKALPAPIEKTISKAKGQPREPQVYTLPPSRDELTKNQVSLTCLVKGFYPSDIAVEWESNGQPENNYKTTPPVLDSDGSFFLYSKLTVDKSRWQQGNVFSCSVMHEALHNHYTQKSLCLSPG
light: DIQMTQSPSSLSASVGDRVTITCRASQDINSYLSWFQQKPGKAPKTLIYRVNRLVDGVPSRFSGSGSGNDYTLTISSLQPEDFATYYCLQYDAFPYTFGQGTKVEIKRTVAAPSVFIFPPSDEQLKSGTASVVCLLNNFYPREAKVQWKVDNALQSGNSQESVTEQDSKDSTYSLSSTLTLSKADYEKHKVYACEVTHQGLSSPVTKSFNRGEC
modifications: D4 linked through the engineered Cys in the heavy chain CH3 domain (5th to the last residue of SEQ ID NO: 54; EU/OU position 442); 1.8 mol D4/mol antibody
- EC50 (read off the curve) [1]: ~0.06 nM

B2: huCD123-6Gv4.7-CysMab-D5 (antibody)
heavy: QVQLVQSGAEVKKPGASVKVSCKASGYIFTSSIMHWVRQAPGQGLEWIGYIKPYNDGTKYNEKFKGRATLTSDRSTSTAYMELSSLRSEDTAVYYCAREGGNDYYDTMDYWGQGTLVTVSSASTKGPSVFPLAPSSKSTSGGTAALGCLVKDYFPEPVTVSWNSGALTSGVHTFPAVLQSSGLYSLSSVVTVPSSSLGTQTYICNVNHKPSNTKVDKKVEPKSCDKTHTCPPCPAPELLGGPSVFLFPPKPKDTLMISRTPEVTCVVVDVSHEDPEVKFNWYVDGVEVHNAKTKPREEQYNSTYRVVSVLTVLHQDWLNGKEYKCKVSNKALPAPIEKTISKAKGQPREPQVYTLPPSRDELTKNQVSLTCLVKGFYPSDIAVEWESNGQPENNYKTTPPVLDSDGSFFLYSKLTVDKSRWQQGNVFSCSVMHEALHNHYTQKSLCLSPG
light: B1 light
modifications: D5 linked through the engineered Cys in the heavy chain CH3 domain (5th to the last residue of SEQ ID NO: 54; EU/OU position 442); 2 mol D5/mol antibody
notes: also called huCD123-CysMab-D5; Cys-linked D5 conjugate
- Fold-specificity IC50 control ADC/IC50 huCD123-CysMab-D5, EOL-1 cells [2]: 1000 fold
- Fold-specificity IC50 control ADC/IC50 huCD123-CysMab-D5, HNT-34 cells [2]: 1100 fold
- Fold-specificity IC50 control ADC/IC50 huCD123-CysMab-D5, KASUMI-3 cells [2]: 100 fold
- Fold-specificity IC50 control ADC/IC50 huCD123-CysMab-D5, KG-1 cells [2]: 95 fold
- Fold-specificity IC50 control ADC/IC50 huCD123-CysMab-D5, KO52 cells [2]: 100 fold
- Fold-specificity IC50 control ADC/IC50 huCD123-CysMab-D5, MOLM-1 cells [2]: > 167 fold
- Fold-specificity IC50 control ADC/IC50 huCD123-CysMab-D5, MV4-11 cells [2]: 2000 fold
- Fold-specificity IC50 control ADC/IC50 huCD123-CysMab-D5, Molm-13 cells [2]: 2000 fold
- Fold-specificity IC50 control ADC/IC50 huCD123-CysMab-D5, SHI-1 cells [2]: > 3.33 fold
- Fold-specificity IC50 control ADC/IC50 huCD123-CysMab-D5, SKM-1 cells [2]: 57 fold
- Fold-specificity IC50 control ADC/IC50 huCD123-CysMab-D5, THP-1 cells [2]: 167 fold
- Fold-specificity IC50 control ADC/IC50 huCD123-CysMab-D5, UCSD-AML1 cells [2]: 400 fold
- IC50, in vitro cytotoxicity on EOL-1 cells [2]: 2 pmol
- IC50, in vitro cytotoxicity on HNT-34 cells [2]: 1 pmol
- IC50, in vitro cytotoxicity on KASUMI-3 cells [2]: 3 pmol
- IC50, in vitro cytotoxicity on KG-1 cells [2]: 60 pmol
- IC50, in vitro cytotoxicity on KO52 cells [2]: 20 pmol
- IC50, in vitro cytotoxicity on MOLM-1 cells [2]: 120 pmol
- IC50, in vitro cytotoxicity on MV4-11 cells [2]: 1 pmol
- IC50, in vitro cytotoxicity on Molm-13 cells [2]: 0.5 pmol
- IC50, in vitro cytotoxicity on SHI-1 cells [2]: 6 pmol
- IC50, in vitro cytotoxicity on SKM-1 cells [2]: 7 pmol
- IC50, in vitro cytotoxicity on THP-1 cells [2]: 30 pmol
- IC50, in vitro cytotoxicity on UCSD-AML1 cells [2]: 1 pmol
- EC50 (read off the curve) [1]: ~0.08 nM

B3: huCD123-6Gv4.6-CysMab-D5 (antibody)
heavy: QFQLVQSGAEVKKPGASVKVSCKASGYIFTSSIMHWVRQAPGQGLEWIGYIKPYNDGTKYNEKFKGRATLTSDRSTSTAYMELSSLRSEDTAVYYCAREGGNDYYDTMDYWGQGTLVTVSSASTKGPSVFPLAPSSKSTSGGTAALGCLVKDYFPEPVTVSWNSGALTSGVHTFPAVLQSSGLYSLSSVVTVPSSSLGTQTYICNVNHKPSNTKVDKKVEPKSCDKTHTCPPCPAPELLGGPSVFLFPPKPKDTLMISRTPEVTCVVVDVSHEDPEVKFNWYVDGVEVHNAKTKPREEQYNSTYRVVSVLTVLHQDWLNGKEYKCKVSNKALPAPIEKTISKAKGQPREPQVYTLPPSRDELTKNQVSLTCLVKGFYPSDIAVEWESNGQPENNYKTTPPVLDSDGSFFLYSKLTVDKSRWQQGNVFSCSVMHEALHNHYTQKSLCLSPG
light: B1 light
modifications: D5 linked through the engineered Cys in the heavy chain CH3 domain (5th to the last residue of SEQ ID NO: 54)
- IC50, in vitro cytotoxicity on EOL-1 cells [3]: ~0.002 nM
- IC50, in vitro cytotoxicity on KOPN-8 cells [3]: ~0.005 nM
- IC50, in vitro cytotoxicity on MOLM-1 cells [3]: ~0.02 nM
- fold loss of cytotoxicity when CD123 is blocked by the unconjugated chCD123-6 antibody [3]: ≥ 100 fold

B4: huCD123-6Gv4.6-D2 (antibody, human IgG1, kappa)
heavy: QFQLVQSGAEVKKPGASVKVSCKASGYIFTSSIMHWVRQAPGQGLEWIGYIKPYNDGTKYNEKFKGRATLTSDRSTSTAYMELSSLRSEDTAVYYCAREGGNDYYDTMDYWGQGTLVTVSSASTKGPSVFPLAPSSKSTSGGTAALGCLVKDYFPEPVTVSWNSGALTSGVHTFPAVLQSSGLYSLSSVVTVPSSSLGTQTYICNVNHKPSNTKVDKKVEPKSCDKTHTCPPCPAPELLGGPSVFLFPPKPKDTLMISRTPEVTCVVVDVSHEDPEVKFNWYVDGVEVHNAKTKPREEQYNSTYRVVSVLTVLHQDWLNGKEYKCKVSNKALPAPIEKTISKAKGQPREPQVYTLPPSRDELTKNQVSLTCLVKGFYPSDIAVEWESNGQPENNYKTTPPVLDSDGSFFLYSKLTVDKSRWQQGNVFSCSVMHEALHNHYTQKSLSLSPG
light: B1 light
modifications: D2 linked at Lys residues; sites not stated; D2 linked at Lys residues; sites and drug load not stated
- IC50, in vitro cytotoxicity on EOL-1 cells [3]: ~0.002 nM
- IC50, in vitro cytotoxicity on KOPN-8 cells [3]: ~0.005 nM
- IC50, in vitro cytotoxicity on MOLM-1 cells [3]: ~0.02 nM
- fold loss of cytotoxicity when CD123 is blocked by the unconjugated chCD123-6 antibody [3]: ≥ 100 fold

B5: huCD123-6Rv1.1S2-SeriMab-D8 (antibody, human IgG1, kappa)
heavy: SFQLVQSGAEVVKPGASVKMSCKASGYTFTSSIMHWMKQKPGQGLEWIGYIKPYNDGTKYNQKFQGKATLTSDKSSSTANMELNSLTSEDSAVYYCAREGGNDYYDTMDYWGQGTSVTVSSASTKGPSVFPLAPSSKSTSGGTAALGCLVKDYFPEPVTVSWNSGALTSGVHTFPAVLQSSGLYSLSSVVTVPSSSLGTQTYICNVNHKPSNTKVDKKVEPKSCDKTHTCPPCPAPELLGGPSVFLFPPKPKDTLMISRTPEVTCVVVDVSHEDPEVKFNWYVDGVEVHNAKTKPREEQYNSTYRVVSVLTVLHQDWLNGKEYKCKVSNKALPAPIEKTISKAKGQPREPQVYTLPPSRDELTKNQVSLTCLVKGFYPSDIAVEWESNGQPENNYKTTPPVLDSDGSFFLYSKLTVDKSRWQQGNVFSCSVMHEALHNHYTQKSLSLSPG
light: B1 light with L11M, D17E, A43S, N69Q, T72S, Q79E, F83M, A84G, T85I, V104L
modifications: D8 linked through the oxidized N-terminal Ser on the heavy chain
- IC50, in vitro cytotoxicity on HNT-34 cells [3]: ~0.002 nM
- IC50, in vitro cytotoxicity on MOLM-1 cells [3]: ~0.03 nM
- IC50, in vitro cytotoxicity on SHI-1 cells [3]: ~0.01 nM
- fold loss of cytotoxicity when CD123 is blocked by the unconjugated huCD123-6 antibody [3]: ≥ 100 fold

B6: huCD123-6Rv1.1-D2 (antibody, human IgG1, kappa)
heavy: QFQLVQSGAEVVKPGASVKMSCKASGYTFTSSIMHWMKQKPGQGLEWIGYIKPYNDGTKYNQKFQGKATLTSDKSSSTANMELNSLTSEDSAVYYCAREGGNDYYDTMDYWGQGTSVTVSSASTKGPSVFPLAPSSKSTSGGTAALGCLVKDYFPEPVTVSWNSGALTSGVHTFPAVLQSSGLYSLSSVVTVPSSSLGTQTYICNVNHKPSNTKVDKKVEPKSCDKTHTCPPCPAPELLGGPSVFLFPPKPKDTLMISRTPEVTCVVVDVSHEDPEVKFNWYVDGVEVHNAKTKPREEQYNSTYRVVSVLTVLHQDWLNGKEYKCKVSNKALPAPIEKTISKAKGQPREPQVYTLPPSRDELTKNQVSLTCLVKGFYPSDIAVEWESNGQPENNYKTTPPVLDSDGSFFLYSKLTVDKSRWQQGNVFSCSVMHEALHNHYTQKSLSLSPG
light: B1 light with L11M, D17E, A43S, N69Q, T72S, Q79E, F83M, A84G, T85I, V104L
modifications: D2 linked at Lys residues; sites not stated; D2 linked at Lys residues; sites and drug load not stated
- IC50, in vitro cytotoxicity on HNT-34 cells [3]: ~0.002 nM
- IC50, in vitro cytotoxicity on MOLM-1 cells [3]: ~0.03 nM
- IC50, in vitro cytotoxicity on SHI-1 cells [3]: ~0.01 nM
- fold loss of cytotoxicity when CD123 is blocked by the unconjugated huCD123-6 antibody [3]: ≥ 100 fold
- IC50, in vitro cytotoxicity on EOL-1 cells (AML) [4]: 0.0025 nM
- IC50, in vitro cytotoxicity on Granta519 cells (NHL) [4]: 0.0012 nM
- IC50, in vitro cytotoxicity on HNT-34 cells (AML) [4]: 0.002 nM
- IC50, in vitro cytotoxicity on JM-1 cells (B-ALL) [4]: 0.024 nM
- IC50, in vitro cytotoxicity on KASUMI-3 cells (AML) [4]: 0.0098 nM
- IC50, in vitro cytotoxicity on KCL-22 cells (CML) [4]: 0.03 nM
- IC50, in vitro cytotoxicity on KG-1 cells (AML) [4]: 0.22 nM
- IC50, in vitro cytotoxicity on KO52 cells (AML) [4]: 0.014 nM
- IC50, in vitro cytotoxicity on KOPN8 cells (B-ALL) [4]: 0.011 nM
- IC50, in vitro cytotoxicity on MOLM-1 cells (CML) [4]: 0.029 nM
- IC50, in vitro cytotoxicity on MOLM-13 cells (AML) [4]: 0.00049 nM
- IC50, in vitro cytotoxicity on MV4-11 cells (AML) [4]: 0.00056 nM
- IC50, in vitro cytotoxicity on OCI-AML2 cells (AML) [4]: 0.088 nM
- IC50, in vitro cytotoxicity on SHI-1 cells (AML) [4]: 0.013 nM
- IC50, in vitro cytotoxicity on THP1 cells (AML) [4]: 0.0067 nM

B7: muCD123-3 (antibody, mouse IgG1, kappa, V domains shown)
VH: EFQLQQSGPEVVKPGASVKMSCKASGYTFTSYVMHWMKQKPGQGLEWIGYIKPYKDGTKYNEKFKGKATLISDKPSSTAYMELSSLTSEDSAVYYCAREGENGYYDAMDYWGQGTSVTVSS
VL: DIQMTQSPSSLSASLGGKVTITCKASQDINKYIAWYQHKPGKGPRLLIHYTSTLQPGIPSRFSGSGSGRDYSFSISNLEPEDIATYYCLQYDNLLYTFGGGTKLELKR
notes: Murine monoclonal antibody purified from hybridoma supernatant; also called CD123Mu-3; CD123 Mu-3
- IC50, inhibition of IL-3 dependent proliferation of TF-1 cells [3]: 0.26 nM
- Kd [5]: 0.3 nM
- Kd [6]: 0.2 nM

B8: huCD123-6Rv1.1-CX1-1-DM1 (antibody)
heavy: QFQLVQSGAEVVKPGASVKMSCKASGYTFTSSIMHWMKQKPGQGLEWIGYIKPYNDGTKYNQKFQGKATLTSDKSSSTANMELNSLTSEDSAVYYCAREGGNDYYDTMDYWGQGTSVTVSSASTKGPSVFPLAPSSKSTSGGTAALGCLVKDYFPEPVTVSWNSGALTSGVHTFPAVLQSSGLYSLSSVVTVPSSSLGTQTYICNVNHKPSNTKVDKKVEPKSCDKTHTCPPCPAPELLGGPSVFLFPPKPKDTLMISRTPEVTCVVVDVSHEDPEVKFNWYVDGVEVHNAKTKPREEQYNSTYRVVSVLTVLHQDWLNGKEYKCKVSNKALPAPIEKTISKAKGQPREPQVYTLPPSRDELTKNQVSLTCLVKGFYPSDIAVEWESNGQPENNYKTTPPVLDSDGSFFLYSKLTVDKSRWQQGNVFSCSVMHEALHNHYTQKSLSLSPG
light: B1 light with L11M, D17E, A43S, N69Q, T72S, Q79E, F83M, A84G, T85I, V104L
modifications: DM1 linked at Lys residues via the triglycyl CX1-1 linker; sites not stated; DM1 linked at Lys residues via the triglycyl CX1-1 linker; average of 4.3 or 6.7 maytansinoid per antibody, sites not stated
- IC50, in vitro cytotoxicity on OCI-AML4 cells [3]: 0.07 nM
